{"source": "paper PMC6565636", "about": "“Rif1 promotes association of G-quadruplex (G4) by its specific G4 binding and oligomerization activities”", "key": {"[1]": {"biological_target": "T1, Rif1 full-length (His6-Rif1-FLAG3) (Schizosaccharomyces pombe (fission …, UniProt Q96UP3 1-1400))", "T1 sequence": "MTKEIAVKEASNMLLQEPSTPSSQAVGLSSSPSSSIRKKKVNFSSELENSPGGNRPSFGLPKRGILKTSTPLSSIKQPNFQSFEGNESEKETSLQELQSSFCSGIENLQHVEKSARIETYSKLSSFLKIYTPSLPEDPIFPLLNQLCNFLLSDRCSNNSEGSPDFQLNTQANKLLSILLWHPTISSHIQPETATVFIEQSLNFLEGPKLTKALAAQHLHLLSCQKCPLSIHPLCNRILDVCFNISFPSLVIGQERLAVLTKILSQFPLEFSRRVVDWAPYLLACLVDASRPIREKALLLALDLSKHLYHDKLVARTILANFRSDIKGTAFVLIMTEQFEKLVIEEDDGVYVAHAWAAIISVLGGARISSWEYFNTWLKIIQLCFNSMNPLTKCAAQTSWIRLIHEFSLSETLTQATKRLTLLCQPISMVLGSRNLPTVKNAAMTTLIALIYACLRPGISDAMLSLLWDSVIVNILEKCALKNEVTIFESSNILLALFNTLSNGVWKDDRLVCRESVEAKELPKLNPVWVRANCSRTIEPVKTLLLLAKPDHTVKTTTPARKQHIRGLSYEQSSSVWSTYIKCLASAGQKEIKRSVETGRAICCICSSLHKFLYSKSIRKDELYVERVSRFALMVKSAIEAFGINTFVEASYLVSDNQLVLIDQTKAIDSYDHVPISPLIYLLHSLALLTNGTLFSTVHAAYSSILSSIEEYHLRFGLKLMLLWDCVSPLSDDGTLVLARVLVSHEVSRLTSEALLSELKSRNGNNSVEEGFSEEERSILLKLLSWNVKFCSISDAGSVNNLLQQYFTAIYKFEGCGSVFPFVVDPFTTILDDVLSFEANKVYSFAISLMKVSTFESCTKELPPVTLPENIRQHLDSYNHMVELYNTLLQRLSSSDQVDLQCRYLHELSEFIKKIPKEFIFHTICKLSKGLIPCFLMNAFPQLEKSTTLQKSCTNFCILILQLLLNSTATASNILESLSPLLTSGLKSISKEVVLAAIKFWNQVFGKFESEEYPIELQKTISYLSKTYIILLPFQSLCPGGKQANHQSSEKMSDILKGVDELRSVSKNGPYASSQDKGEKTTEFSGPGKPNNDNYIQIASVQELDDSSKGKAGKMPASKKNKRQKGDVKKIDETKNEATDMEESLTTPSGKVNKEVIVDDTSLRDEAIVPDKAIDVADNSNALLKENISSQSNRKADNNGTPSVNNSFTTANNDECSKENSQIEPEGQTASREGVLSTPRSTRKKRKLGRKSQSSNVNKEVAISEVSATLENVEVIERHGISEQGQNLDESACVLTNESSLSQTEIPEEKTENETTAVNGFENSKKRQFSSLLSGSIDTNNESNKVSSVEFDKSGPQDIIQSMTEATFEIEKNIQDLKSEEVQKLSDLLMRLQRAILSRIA", "test": "EMSA; KCl; text: not bound very efficiently; EMSA with oligos heat-denatured and renatured in 50 mM KCl/40% PEG200 (Fig 5: 50 mM Tris-HCl pH 7.5 with KCl, NaCl or none); gel shift buffer 40 mM Hepes-KOH pH 7.6, 50 mM KCl, 1 mM EDTA, 10% glycerol, 0.01% Triton X-100; pull-down 30 min at room temperature; +++/++/+ = >50/>16/>6% shift at 1 nM Rif1", "conditions": "protein: recombinant; tags: N-term His6, C-term FLAG3; label: 32P; hybrid G4"}, "[2]": {"biological_target": "T1, Rif1 full-length (His6-Rif1-FLAG3)", "test": "EMSA; KCl; text: poor binder; EMSA with oligos heat-denatured and renatured in 50 mM KCl/40% PEG200 (Fig 5: 50 mM Tris-HCl pH 7.5 with KCl, NaCl or none); gel shift buffer 40 mM Hepes-KOH pH 7.6, 50 mM KCl, 1 mM EDTA, 10% glycerol, 0.01% Triton X-100; pull-down 30 min at room temperature; +++/++/+ = >50/>16/>6% shift at 1 nM Rif1", "conditions": "protein: recombinant; tags: N-term His6, C-term FLAG3; label: 32P; hybrid G4"}, "[3]": {"biological_target": "T2, Taz1 (Schizosaccharomyces pombe (fission …, UniProt P79005 1-663))", "T2 sequence": "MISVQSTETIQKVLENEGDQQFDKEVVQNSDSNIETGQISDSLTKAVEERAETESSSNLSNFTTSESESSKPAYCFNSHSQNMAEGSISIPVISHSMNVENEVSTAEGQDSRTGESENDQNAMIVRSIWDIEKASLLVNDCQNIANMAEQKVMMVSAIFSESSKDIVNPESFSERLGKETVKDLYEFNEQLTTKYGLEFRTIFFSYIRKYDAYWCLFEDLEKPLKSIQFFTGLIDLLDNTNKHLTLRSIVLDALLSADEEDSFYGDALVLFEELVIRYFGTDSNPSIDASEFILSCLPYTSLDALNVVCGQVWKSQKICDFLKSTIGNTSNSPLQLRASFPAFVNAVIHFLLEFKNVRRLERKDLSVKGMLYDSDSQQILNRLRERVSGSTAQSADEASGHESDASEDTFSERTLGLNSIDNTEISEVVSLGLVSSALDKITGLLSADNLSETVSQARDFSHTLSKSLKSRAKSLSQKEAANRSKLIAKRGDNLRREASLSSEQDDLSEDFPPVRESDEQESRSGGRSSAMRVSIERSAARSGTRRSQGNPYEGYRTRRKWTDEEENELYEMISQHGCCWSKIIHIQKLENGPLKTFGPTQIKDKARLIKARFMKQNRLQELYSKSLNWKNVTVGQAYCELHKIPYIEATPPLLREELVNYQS", "test": "EMSA; EMSA with oligos heat-denatured and renatured in 50 mM KCl/40% PEG200 (Fig 5: 50 mM Tris-HCl pH 7.5 with KCl, NaCl or none); gel shift buffer 40 mM Hepes-KOH pH 7.6, 50 mM KCl, 1 mM EDTA, 10% glycerol, 0.01% Triton X-100; pull-down 30 min at room temperature; +++/++/+ = >50/>16/>6% shift at 1 nM Rif1", "conditions": "protein: recombinant; tags: N-term His6, C-term FLAG3; chain copies: 2; label: 32P; blunt"}, "[4]": {"biological_target": "T1, Rif1 full-length (His6-Rif1-FLAG3)", "test": "EMSA; EMSA with oligos heat-denatured and renatured in 50 mM KCl/40% PEG200 (Fig 5: 50 mM Tris-HCl pH 7.5 with KCl, NaCl or none); gel shift buffer 40 mM Hepes-KOH pH 7.6, 50 mM KCl, 1 mM EDTA, 10% glycerol, 0.01% Triton X-100; pull-down 30 min at room temperature; +++/++/+ = >50/>16/>6% shift at 1 nM Rif1", "conditions": "protein: recombinant; tags: N-term His6, C-term FLAG3; label: 32P"}}, "data": [{"binder": "TAGGGTTAGGGTTAGGGTTAGGG (structured_DNA)", "note": "[Htelo1]", "values": [{"measurement": "binding result", "setting": "[1]", "value": "no binding"}]}, {"binder": "TAGGGTTAGGGTTAGGGTTAGGGTT (structured_DNA)", "note": "[Htelo2]", "values": [{"measurement": "binding result", "setting": "[2]", "value": "no binding"}]}, {"binder": "Taz1BS (dsDNA) DNA 1: TTACAGGTTACAGGTTACAGG DNA 2: CCTGTAACCTGTAACCTGTAA", "values": [{"measurement": "Kd", "setting": "[3]", "value": "~30", "unit": "nM"}]}, {"binder": "GGGGGGGGGG (structured_DNA)", "note": "[G10]", "values": [{"measurement": "binding result", "setting": "[4]", "value": "binds"}]}]}
